{
  "source": "patent US20200131227A1",
  "about": "“POLYPEPTIDE WITH TUMOUR BINDING ACTIVITY” (RUPRECHT-KARLS-UNIVERSITÄT HEIDELBERG, priority 2017, published 2020)",
  "key": {"[1]": {"experiment": "Biodistribution, HNO97 xenografts", "settings": "Balb/c nude, mouse, iv, 1 MBq, total radioactivity; for tissue to tissue ratio at 0.5 h / tissue to tissue ratio at 1 h / tissue to tissue ratio at 2 h / tissue to tissue ratio at 4 h / tissue to tissue ratio at 6 h: HNO97 xenografts; for tissue to tissue ratio at 0.5 h: 30 min", "method": "All experiments were conducted in compliance with the German animal protection laws. Eight week old Balb c/c nude mice (Charles River Laboratories) were inoculated subcutaneously at the right shoulder with 5×10^6 HNO97 cells in BD MatriGel™ (BD Bioscience). Xenografts were grown to a tumor diameter of 10-15 mm. For small animal-PET imaging mice were anesthetized using isoflurane inhalation and injected via tail-vein with 50 MBq (2 nmol) of the ^68Ga-labeled DOTA-SFITGv6 peptide (see above) solution in 100 μL PBS. Images were recorded on an Inveon small-animal PET scanner (Siemens) using a 60 min emission scan in list mode and a 10 min transmission scan. Images were taken in 3-dimensional (3D) mode and reconstructed iteratively with a fully 3D algorithm from a 256×256 matrix for viewing transaxial, coronal, and sagittal slices of 0.9 mm thickness. Pixel size was 0.38×0.38×0.79 mm3 and transaxial resolution obtained was 0.9 mm. For blocking experiments 100 μL of a 1 mM aqueous solution of SFITGv6 was pre-administered intraperitoneally 30 min before injection of the radiolabeled peptide. Biodistribution studies were performed after administration of 100 μL of a 20 nM ^177Lu-DOTA-SFITGv6 solution (1 MBq) as an intravenous bolus injection into the tail vein of the mice. After different time points (30 min to 6 hours) three animals, respectively, were sacrificed. Peripheral blood, heart, lung, spleen, liver, kidneys, muscle, brain, intestine, and injection site (tail, after intravenous injection only) were collected and weighted. Tissue-associated radioactivity was measured in a gamma counter (Berthold LB951G) and expressed as percentage of the injected dose per gram tissue (% ID/g).\nAll animal experiments were conducted in compliance with the German animal protection laws. For in vivo small animal PET imaging and organ distribution studies eight-week old Balb/c nude mice (Charles River Laboratories) were inoculated subcutaneously at the right shoulder with a total of 5×10^6 tumor cells in MatriGel (BD Bioscience). Xenografts were grown until a tumor diameter of 10-15 mm was reached.\n3-dimensional (3D) PET images of whole mice were captured by the Siemens Inveon PET scanner as described in Example 1. To assess the biodistribution 100 μL of a 20 nM solution (1 MBq) of ^177Lu-DOTA-SFLAP3 and ^177Lu-DOTA-SFITGv6 were administered as an intravenous bolus injection into the tail vein of mice. For each time point (30 min to 6 hours) we sacrificed a total of three animals, and subsequently collected peripheral blood, heart, lung, spleen, liver, kidneys, muscle, brain, and intestine. Tissues were weighed and respective radioactivity was measured by a gamma counter (LB951G, Berthold Technologies). Values were expressed as percentage of the injected dose radioactivity (MBq) per gram tissue (% ID/g)."}, "carcinoma cell lines": {"test_system": "carcinoma cell lines", "experiment": "In vitro binding of radiolabeled peptides to several carcinoma cell lines", "assay_type": "cell-based, human", "settings": "after 240 min (FIG. 17C)", "in_short": "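Cells seeded 48 h were incubated with ^125I-labeled peptide in serum-free medium for 10 or 60 min, alone or with unlabeled peptide (10^−4 to 10^−11 M); HNO97 kinetics, efflux and internalization (37° C and 4° C, acid strip) used ^177Lu-DOTA-SFITGv6. Gamma counting gave % applied dose per 10^6 cells.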"}, "[2]": {"settings": "in vivo, Tumor-to-Intestine ratio"}},
  "note": "Where a SMILES comes first, the peptide text is derived from it. Bridges are numbered along the chain shown (N, C = ends). The star is where a group is joined. DOTA = O=C(O)CN1CCN(CC(=O)O)CCN(CC(=O)*)CCN(CC(=O)O)CC1",
  "data": [
    {"smiles": "CSCC[C@@H]1NC(=O)[C@H](CC(C)C)NC(=O)[C@H](CC(=O)O)NC(=O)CNC(=O)[C@H](CCCNC(=N)N)NC(=O)[C@H](Cc2ccccc2)NC(=O)[C@H]([C@@H](C)O)NC(=O)[C@@H](NC(=O)[C@H](CCCNC(=N)N)NC(=O)CNC(=O)CN2CCN(CC(=O)O)CCN(CC(=O)O)CCN(CC(=O)O)CC2)CSSC[C@@H](C(=O)N[C@@H](Cc2ccc(O)cc2)C(=O)N2CCC[C@H]2C(=O)N[C@@H](CC(=O)O)C(=O)O)NC(=O)[C@H](CC(C)C)NC(=O)[C@H](CCC(N)=O)NC1=O", "note": "[^177Lu-DOTA-SFITGv6, metal not drawn] ({DOTA}-GRCTFRGDLMQLCYPD-OH; disulfide 3-13)", "values": [
      {"measurement": "tissue to tissue ratio at 0.5 h", "setting": "[1]; in vivo, Tumor-to-Blood ratio", "result": "6.89 ± 1"},
      {"measurement": "tissue to tissue ratio at 1 h", "setting": "[1]; in vivo, Tumor-to-Blood ratio", "result": "12.9 ± 0.83"},
      {"measurement": "tissue to tissue ratio at 2 h", "setting": "[1]; in vivo, Tumor-to-Blood ratio", "result": "59.5 ± 1.04"},
      {"measurement": "tissue to tissue ratio at 4 h", "setting": "[1]; in vivo, Tumor-to-Blood ratio", "result": "98.86 ± 0.35"},
      {"measurement": "tissue to tissue ratio at 6 h", "setting": "[1]; in vivo, Tumor-to-Blood ratio", "result": "99.15 ± 0.51"},
      {"measurement": "tissue to tissue ratio at 0.5 h", "setting": "[1]; in vivo, Tumor-to-Brain ratio", "result": "190.9 ± 1"},
      {"measurement": "tissue to tissue ratio at 1 h", "setting": "[1]; in vivo, Tumor-to-Brain ratio", "result": "198.6 ± 0.82"},
      {"measurement": "tissue to tissue ratio at 2 h", "setting": "[1]; in vivo, Tumor-to-Brain ratio", "result": "250.3 ± 1.04"},
      {"measurement": "tissue to tissue ratio at 4 h", "setting": "[1]; in vivo, Tumor-to-Brain ratio", "result": "372.6 ± 0.35"},
      {"measurement": "tissue to tissue ratio at 6 h", "setting": "[1]; in vivo, Tumor-to-Brain ratio", "result": "424.9 ± 0.51"},
      {"measurement": "tissue to tissue ratio at 0.5 h", "setting": "[1]; in vivo, Tumor-to-Heart ratio", "result": "15.1 ± 1"},
      {"measurement": "tissue to tissue ratio at 1 h", "setting": "[1]; in vivo, Tumor-to-Heart ratio", "result": "21.9 ± 0.82"},
      {"measurement": "tissue to tissue ratio at 2 h", "setting": "[1]; in vivo, Tumor-to-Heart ratio", "result": "48.8 ± 1.04"},
      {"measurement": "tissue to tissue ratio at 4 h", "setting": "[1]; in vivo, Tumor-to-Heart ratio", "result": "67.5 ± 0.36"},
      {"measurement": "tissue to tissue ratio at 6 h", "setting": "[1]; in vivo, Tumor-to-Heart ratio", "result": "78.99 ± 0.51"},
      {"measurement": "tissue to tissue ratio at 0.5 h", "setting": "[1]; [2]", "result": "4.59 ± 1"},
      {"measurement": "tissue to tissue ratio at 1 h", "setting": "[1]; [2]", "result": "3.42 ± 0.83"},
      {"measurement": "tissue to tissue ratio at 2 h", "setting": "[1]; [2]", "result": "9.44 ± 1.05"},
      {"measurement": "tissue to tissue ratio at 4 h", "setting": "[1]; [2]", "result": "10.7 ± 0.36"},
      {"measurement": "tissue to tissue ratio at 6 h", "setting": "[1]; [2]", "result": "7.82 ± 0.51"},
      {"measurement": "tissue to tissue ratio at 0.5 h", "setting": "[1]; in vivo, Tumor-to-Kidney ratio", "result": "0.15 ± 3.73"},
      {"measurement": "tissue to tissue ratio at 1 h", "setting": "[1]; in vivo, Tumor-to-Kidney ratio", "result": "0.12 ± 2.21"},
      {"measurement": "tissue to tissue ratio at 2 h", "setting": "[1]; in vivo, Tumor-to-Kidney ratio", "result": "0.1 ± 3.11"},
      {"measurement": "tissue to tissue ratio at 4 h", "setting": "[1]; in vivo, Tumor-to-Kidney ratio", "result": "0.07 ± 2.69"},
      {"measurement": "tissue to tissue ratio at 6 h", "setting": "[1]; in vivo, Tumor-to-Kidney ratio", "result": "0.06 ± 2.58"},
      {"measurement": "tissue to tissue ratio at 0.5 h", "setting": "[1]; in vivo, Tumor-to-Liver ratio", "result": "20.8 ± 1"},
      {"measurement": "tissue to tissue ratio at 1 h", "setting": "[1]; in vivo, Tumor-to-Liver ratio", "result": "21.5 ± 0.82"},
      {"measurement": "tissue to tissue ratio at 2 h", "setting": "[1]; in vivo, Tumor-to-Liver ratio", "result": "25.8 ± 1.04"},
      {"measurement": "tissue to tissue ratio at 4 h", "setting": "[1]; in vivo, Tumor-to-Liver ratio", "result": "32.2 ± 0.36"},
      {"measurement": "tissue to tissue ratio at 6 h", "setting": "[1]; in vivo, Tumor-to-Liver ratio", "result": "17.6 ± 0.51"},
      {"measurement": "tissue to tissue ratio at 0.5 h", "setting": "[1]; in vivo, Tumor-to-Lung ratio", "result": "2.29 ± 1.14"},
      {"measurement": "tissue to tissue ratio at 1 h", "setting": "[1]; in vivo, Tumor-to-Lung ratio", "result": "3.81 ± 0.82"},
      {"measurement": "tissue to tissue ratio at 2 h", "setting": "[1]; in vivo, Tumor-to-Lung ratio", "result": "9.13 ± 1.05"},
      {"measurement": "tissue to tissue ratio at 4 h", "setting": "[1]; in vivo, Tumor-to-Lung ratio", "result": "10.3 ± 0.36"},
      {"measurement": "tissue to tissue ratio at 6 h", "setting": "[1]; in vivo, Tumor-to-Lung ratio", "result": "9.73 ± 0.51"},
      {"measurement": "tissue to tissue ratio at 0.5 h", "setting": "[1]; in vivo, Tumor-to-Muscle ratio", "result": "13.9 ± 1"},
      {"measurement": "tissue to tissue ratio at 1 h", "setting": "[1]; in vivo, Tumor-to-Muscle ratio", "result": "16.1 ± 0.83"},
      {"measurement": "tissue to tissue ratio at 2 h", "setting": "[1]; in vivo, Tumor-to-Muscle ratio", "result": "22.7 ± 1.04"},
      {"measurement": "tissue to tissue ratio at 4 h", "setting": "[1]; in vivo, Tumor-to-Muscle ratio", "result": "32.3 ± 0.36"},
      {"measurement": "tissue to tissue ratio at 6 h", "setting": "[1]; in vivo, Tumor-to-Muscle ratio", "result": "21.9 ± 0.51"},
      {"measurement": "tissue to tissue ratio at 0.5 h", "setting": "[1]; in vivo, Tumor-to-Spleen ratio", "result": "21.1 ± 1"},
      {"measurement": "tissue to tissue ratio at 1 h", "setting": "[1]; in vivo, Tumor-to-Spleen ratio", "result": "27.4 ± 0.82"},
      {"measurement": "tissue to tissue ratio at 2 h", "setting": "[1]; in vivo, Tumor-to-Spleen ratio", "result": "38.4 ± 1.04"},
      {"measurement": "tissue to tissue ratio at 4 h", "setting": "[1]; in vivo, Tumor-to-Spleen ratio", "result": "51.78 ± 0.36"},
      {"measurement": "tissue to tissue ratio at 6 h", "setting": "[1]; in vivo, Tumor-to-Spleen ratio", "result": "35.4 ± 0.51"},
      {"measurement": "tissue uptake", "setting": "[1]; in vivo, uptake in the kidneys, hardly any clearance", "result": "~42", "unit": "%ID/g"},
      {"measurement": "tissue uptake at 0.5 h", "setting": "[1]", "result": "6.22 ± 1", "unit": "%ID/g"},
      {"measurement": "tissue uptake at 6 h", "setting": "[1]", "result": "2.43 ± 0.51", "unit": "%ID/g"}
    ]},
    {"smiles": "CC(C)C[C@@H]1NC(=O)[C@H](CC(=O)O)NC(=O)CNC(=O)[C@H](CCCNC(=N)N)NC(=O)CNC(=O)[C@H]([C@@H](C)O)NC(=O)[C@@H](NC(=O)[C@H](CCCNC(=N)N)NC(=O)CNC(=O)CN2CCN(CC(=O)O)CCN(CC(=O)O)CCN(CC(=O)O)CC2)CSSC[C@@H](C(=O)N[C@@H](Cc2ccc(O)cc2)C(=O)N2CCC[C@H]2C(=O)N[C@@H](CC(=O)O)C(N)=O)NC(=O)[C@H](CC(C)C)NC(=O)[C@H](CCCNC(=N)N)NC(=O)CNC1=O", "note": "[^177Lu-DOTA-SFLAP3, metal not drawn] ({DOTA}-GRCTGRGDLGRLCYPD-NH2; disulfide 3-13; N-terminus and C-terminus assumed)", "values": [
      {"measurement": "binding/internalization late in efflux experiment", "setting": "carcinoma cell lines", "result": "moderate renewed increase of binding/internalization"},
      {"measurement": "tissue uptake at 1 h", "setting": "[1]; in vivo", "result": "9.1 ± 1.2", "unit": "%ID/g"},
      {"measurement": "tissue uptake at 6 h", "setting": "[1]; in vivo", "result": "5.8 ± 1.44", "unit": "%ID/g"}
    ]}
  ]
}
